Measurements taken from the supplement of paper PMC9112550, “Optimization of the antimicrobial peptide Bac7 by deep mutational scanning” (BMC Biology, 2022).

System: Escherichia coli TOP10
Assay: shrunken log2 fold change of peptide-encoding DNA abundance (4.5 h post-induction vs induction); higher = less antimicrobial activity (less host growth inhibition)
Details: time post-induction: 4.5 h; library: site-saturation at positions 5, 18, 19, 20
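Further: peptides expressed intracellularly from a pBAD plasmid library in pooled LB shake-flask culture, induced with 0.3% L-arabinose, DNA abundance read by NGS, three biological replicates, DESeq2 with apeglm shrinkage.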

Sequence	shrunken log2 fold change
RRIRPRPPRLPRPRPRPMYLPRP	-0.257
RRIRNRPPRLPRPRPRPSVTPRP	0.0789
RRIRMRPPRLPRPRPRPFNLPRP	-0.16
RRIRFRPPRLPRPRPRPEVWPRP	0.273
RRIRHRPPRLPRPRPRPSISPRP	-0.727
RRIRSRPPRLPRPRPRPACMPRP	0.159
RRIRNRPPRLPRPRPRPKQGPRP	0.0554
RRIRHRPPRLPRPRPRPFHWPRP	-0.0742
RRIRHRPPRLPRPRPRPLQVPRP	-0.28
RRIRFRPPRLPRPRPRPECFPRP	0.0331
RRIRKRPPRLPRPRPRPMKMPRP	0.473
RRIRNRPPRLPRPRPRPNWPPRP	0.142
RRIRGRPPRLPRPRPRPVLGPRP	0.343
RRIRCRPPRLPRPRPRPRWFPRP	0.0519
RRIRTRPPRLPRPRPRPGAVPRP	0.104
RRIRVRPPRLPRPRPRPKAYPRP	0.0199
RRIRPRPPRLPRPRPRPFYGPRP	-0.142
RRIRWRPPRLPRPRPRPYEKPRP	-0.139
RRIRFRPPRLPRPRPRPVKQPRP	-0.0303
RRIRLRPPRLPRPRPRPDEQPRP	-0.017
RRIRTRPPRLPRPRPRPHEHPRP	-0.0451
RRIRYRPPRLPRPRPRPTFQPRP	-0.0033
RRIRKRPPRLPRPRPRPWDMPRP	0.142
RRIRERPPRLPRPRPRPINYPRP	-0.286
RRIRGRPPRLPRPRPRPLVMPRP	0.263

Sequence	shrunken log2 fold change
RRIRYRPPRLPRPRPRPGVVPRP	-0.354
RRIRRRPPRLPRPRPRPMEGPRP	0.0518
RRIRERPPRLPRPRPRPEDCPRP	-0.104
RRIRCRPPRLPRPRPRPWAEPRP	-0.136
RRIRWRPPRLPRPRPRPFFPPRP	-0.0359
RRIRIRPPRLPRPRPRPPMAPRP	-0.256
RRIRNRPPRLPRPRPRPKPSPRP	0.137
RRIRSRPPRLPRPRPRPCVYPRP	-0.0613
RRIRRRPPRLPRPRPRPKDLPRP	-0.0233
RRIRERPPRLPRPRPRPNKLPRP	-0.596
RRIRIRPPRLPRPRPRPAWWPRP	0.0406
RRIRVRPPRLPRPRPRPLRMPRP	0.191
RRIRQRPPRLPRPRPRPWYQPRP	-0.000894
RRIRFRPPRLPRPRPRPSGRPRP	0.0486
RRIRSRPPRLPRPRPRPIIMPRP	-0.35
RRIRFRPPRLPRPRPRPDYWPRP	-0.142
RRIRRRPPRLPRPRPRPLTTPRP	0.311
RRIRDRPPRLPRPRPRPDMYPRP	0.214
RRIRKRPPRLPRPRPRPYFGPRP	-0.711
RRIRIRPPRLPRPRPRPAWVPRP	0.0748
RRIRYRPPRLPRPRPRPACWPRP	0.47
RRIRIRPPRLPRPRPRPHPNPRP	-0.404
RRIRYRPPRLPRPRPRPYTPPRP	-1.28
RRIRSRPPRLPRPRPRPTGCPRP	0.159
RRIRNRPPRLPRPRPRPACDPRP	-0.00482

Sequence	shrunken log2 fold change
RRIRERPPRLPRPRPRPHHWPRP	-0.315
RRIRKRPPRLPRPRPRPSMRPRP	0.915
RRIRVRPPRLPRPRPRPTEKPRP	-0.0708
RRIRERPPRLPRPRPRPFYFPRP	0.935
RRIRFRPPRLPRPRPRPGMMPRP	-0.216
RRIRTRPPRLPRPRPRPPRPPRP	0.713
RRIRKRPPRLPRPRPRPKYLPRP	-0.0198
RRIRSRPPRLPRPRPRPELDPRP	0.674
RRIRRRPPRLPRPRPRPMFVPRP	-0.0498
RRIRKRPPRLPRPRPRPGEWPRP	-0.0202
RRIRCRPPRLPRPRPRPAHTPRP	-0.0293
RRIRKRPPRLPRPRPRPMFLPRP	-0.0587
RRIRYRPPRLPRPRPRPMKVPRP	0.0135
RRIRTRPPRLPRPRPRPHGTPRP	0.219
RRIRQRPPRLPRPRPRPNWRPRP	0.107
RRIRTRPPRLPRPRPRPVCKPRP	-0.0432
RRIRSRPPRLPRPRPRPEWFPRP	-0.287
RRIRARPPRLPRPRPRPQLLPRP	0.527
RRIRDRPPRLPRPRPRPHMDPRP	0.0662
RRIRWRPPRLPRPRPRPRGFPRP	0.25
RRIRIRPPRLPRPRPRPIDQPRP	-0.341
RRIRWRPPRLPRPRPRPRFYPRP	-0.00432
RRIRARPPRLPRPRPRPQWHPRP	-0.0862
RRIRVRPPRLPRPRPRPKCRPRP	0.224
RRIRERPPRLPRPRPRPVLNPRP	-0.54

Sequence	shrunken log2 fold change
RRIRGRPPRLPRPRPRPPTEPRP	1.04
RRIRTRPPRLPRPRPRPYFKPRP	-0.577
RRIRWRPPRLPRPRPRPGFWPRP	0.494
RRIRKRPPRLPRPRPRPRTWPRP	0.124
RRIRSRPPRLPRPRPRPRCVPRP	0.116
RRIRLRPPRLPRPRPRPQLYPRP	-0.12
RRIRKRPPRLPRPRPRPEQIPRP	0.0375
RRIRERPPRLPRPRPRPRYWPRP	0.185
RRIRERPPRLPRPRPRPHVVPRP	-0.162
RRIRKRPPRLPRPRPRPCDDPRP	-0.0472
RRIRQRPPRLPRPRPRPDYFPRP	-0.198
RRIRYRPPRLPRPRPRPCYYPRP	-1.03
RRIRPRPPRLPRPRPRPKTTPRP	0.507
RRIRLRPPRLPRPRPRPRINPRP	-0.0907
RRIRPRPPRLPRPRPRPHIEPRP	-0.646
RRIRMRPPRLPRPRPRPHLAPRP	1.6
RRIRERPPRLPRPRPRPAPRPRP	0.734
RRIRIRPPRLPRPRPRPICQPRP	-0.418
RRIRYRPPRLPRPRPRPMREPRP	0.529
RRIRIRPPRLPRPRPRPAQMPRP	-0.0791
RRIRQRPPRLPRPRPRPSYLPRP	-0.482
RRIRWRPPRLPRPRPRPANFPRP	0.106
RRIRMRPPRLPRPRPRPKQAPRP	3.56
RRIRKRPPRLPRPRPRPGKRPRP	0.285
RRIRYRPPRLPRPRPRPSRHPRP	-0.649

Sequence	shrunken log2 fold change
RRIRERPPRLPRPRPRPFGPPRP	-0.146
RRIRIRPPRLPRPRPRPMSAPRP	-0.205
RRIRTRPPRLPRPRPRPGAWPRP	0.12
RRIRMRPPRLPRPRPRPGTGPRP	0.596
RRIRARPPRLPRPRPRPAHSPRP	0.469
RRIRLRPPRLPRPRPRPNMSPRP	-0.129
RRIRLRPPRLPRPRPRPAWWPRP	0.173
RRIRGRPPRLPRPRPRPQGQPRP	0.414
RRIRHRPPRLPRPRPRPHAPPRP	-0.0972
RRIRPRPPRLPRPRPRPVWGPRP	0.0591
RRIRTRPPRLPRPRPRPIPEPRP	-0.0588
RRIRERPPRLPRPRPRPLPFPRP	-0.688
RRIRQRPPRLPRPRPRPSSGPRP	-0.0384
RRIRSRPPRLPRPRPRPEPFPRP	0.621
RRIRPRPPRLPRPRPRPVMTPRP	-0.0299
RRIRYRPPRLPRPRPRPHFHPRP	-0.489
RRIRLRPPRLPRPRPRPEWSPRP	-0.178
RRIRERPPRLPRPRPRPDVQPRP	-0.0408
RRIRWRPPRLPRPRPRPTTQPRP	-0.0204
RRIRIRPPRLPRPRPRPHYSPRP	-1.15
RRIRERPPRLPRPRPRPYSYPRP	-0.0155
RRIRFRPPRLPRPRPRPICRPRP	-0.0837
RRIRIRPPRLPRPRPRPPNVPRP	0.0421
RRIRGRPPRLPRPRPRPCWWPRP	0.554
RRIRMRPPRLPRPRPRPLVDPRP	0.526

Sequence	shrunken log2 fold change
RRIRGRPPRLPRPRPRPPKHPRP	0.567
RRIRSRPPRLPRPRPRPDSHPRP	-0.36
RRIRARPPRLPRPRPRPRHGPRP	0.343
RRIRQRPPRLPRPRPRPFTPPRP	-0.388
RRIRTRPPRLPRPRPRPIKKPRP	-0.0742
RRIRSRPPRLPRPRPRPTGDPRP	0.353
RRIRVRPPRLPRPRPRPMHYPRP	-0.266
RRIRTRPPRLPRPRPRPNAIPRP	-0.797
RRIRMRPPRLPRPRPRPMKIPRP	-0.00146
RRIRNRPPRLPRPRPRPQAQPRP	-0.0086
RRIRFRPPRLPRPRPRPYISPRP	-0.295
RRIRMRPPRLPRPRPRPMTFPRP	-0.512
RRIRNRPPRLPRPRPRPNYYPRP	-0.473
RRIRHRPPRLPRPRPRPCLMPRP	-0.0298
RRIRTRPPRLPRPRPRPTKSPRP	0.0353
RRIRHRPPRLPRPRPRPLSEPRP	0.203
RRIRKRPPRLPRPRPRPMIAPRP	0.509
RRIRDRPPRLPRPRPRPTTCPRP	0.463
RRIRSRPPRLPRPRPRPFWMPRP	-0.293
RRIRPRPPRLPRPRPRPGLDPRP	0.0198
RRIRIRPPRLPRPRPRPKWFPRP	-0.69
RRIRMRPPRLPRPRPRPFEIPRP	0.0739
RRIRLRPPRLPRPRPRPSDDPRP	-0.34
RRIRKRPPRLPRPRPRPFDVPRP	0.0305
RRIRYRPPRLPRPRPRPCRPPRP	-0.0124
